Source: publication PMC13376213, “Systematic discovery of motif-based interactions of the auxiliary domains of USP family deubiquitinases” (Nature Communications, 2026)
Ends that are not written are not given here.

T1: CYLD CAP-Gly1 domain, GST-tagged, Q9NQC7
T1 chain: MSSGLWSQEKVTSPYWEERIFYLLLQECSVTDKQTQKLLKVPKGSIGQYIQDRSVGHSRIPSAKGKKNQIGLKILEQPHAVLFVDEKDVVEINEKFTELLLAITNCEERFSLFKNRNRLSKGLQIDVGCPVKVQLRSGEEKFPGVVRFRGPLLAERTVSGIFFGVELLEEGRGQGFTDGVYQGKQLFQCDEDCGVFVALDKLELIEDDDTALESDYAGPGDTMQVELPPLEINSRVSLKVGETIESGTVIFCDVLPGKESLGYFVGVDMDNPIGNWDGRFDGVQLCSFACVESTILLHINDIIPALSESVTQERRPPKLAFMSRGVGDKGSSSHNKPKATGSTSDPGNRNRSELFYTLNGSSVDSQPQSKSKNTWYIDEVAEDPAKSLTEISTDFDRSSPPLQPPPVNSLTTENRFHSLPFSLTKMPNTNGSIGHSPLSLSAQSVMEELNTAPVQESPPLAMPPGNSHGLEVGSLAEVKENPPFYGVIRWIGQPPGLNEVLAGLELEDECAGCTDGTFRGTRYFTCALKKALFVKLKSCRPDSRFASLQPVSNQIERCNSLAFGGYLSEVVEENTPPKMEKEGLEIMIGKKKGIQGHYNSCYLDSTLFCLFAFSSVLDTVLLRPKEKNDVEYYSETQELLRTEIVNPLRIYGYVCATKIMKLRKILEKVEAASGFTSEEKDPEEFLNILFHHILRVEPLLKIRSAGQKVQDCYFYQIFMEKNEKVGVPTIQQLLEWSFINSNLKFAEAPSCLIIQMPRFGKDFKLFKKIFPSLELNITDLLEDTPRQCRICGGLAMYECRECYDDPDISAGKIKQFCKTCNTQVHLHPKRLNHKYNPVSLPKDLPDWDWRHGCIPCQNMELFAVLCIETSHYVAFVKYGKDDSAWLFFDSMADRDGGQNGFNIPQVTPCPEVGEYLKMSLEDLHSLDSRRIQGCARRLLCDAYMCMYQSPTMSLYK

T2: CYLD CAP-Gly3 domain, GST-tagged, Q9NQC7
T2 chain: T1 chain


Molecular target: T1, CYLD CAP-Gly1 domain, GST-tagged, Q9NQC7
Assay: peptide SPOT array alanine scanning
Details: chain shown with the change;; parent: est. 0; read off a plot

Row | other: signal change (%) | Binder
1 | -25 | PDAELQRMEAEAERRR [RBM25_(558-573) peptide, P49756 Q567A]
2 | -40 | PDAELQRMEQEAEARR [RBM25_(558-573) peptide, P49756 R571A]
3 | -10 | PDAELQRMEQEAARRR [RBM25_(558-573) peptide, P49756 E570A]
4 | -90 | PDAELQRAEQEAERRR [RBM25_(558-573) peptide, P49756 M565A]
5 | -95 | PDAELQRMEQEAERAR [RBM25_(558-573) peptide, P49756 R572A]
6 | -5 | ADAELQRMEQEAERRR [RBM25_(558-573) peptide, P49756 P558A]
7 | -15 | PDAELQRMEQAAERRR [RBM25_(558-573) peptide, P49756 E568A]
8 | -65 | PDAELQAMEQEAERRR [RBM25_(558-573) peptide, P49756 R564A]
9 | -10 | PAAELQRMEQEAERRR [RBM25_(558-573) peptide, P49756 D559A]
10 | -95 | PDAELQRMEQEAERRA [RBM25_(558-573) peptide, P49756 R573A]
11 | -35 | PDAELARMEQEAERRR [RBM25_(558-573) peptide, P49756 Q563A]
12 | -15 | PDAELQRMAQEAERRR [RBM25_(558-573) peptide, P49756 E566A]
13 | -30 | PDAALQRMEQEAERRR [RBM25_(558-573) peptide, P49756 E561A]
14 | -95 | PDAEAQRMEQEAERRR [RBM25_(558-573) peptide, P49756 L562A]

Molecular target: T2, CYLD CAP-Gly3 domain, GST-tagged, Q9NQC7
Assay: peptide SPOT array alanine scanning
Details: chain shown with the change;; parent: est. 0; read off a plot

Row | other: signal change (%) | Binder
15 | -95 | GGVFKDEAYIPLQEED [HECTD4_(3003-3018) peptide, Q9Y4D8 I3010A]
16 | -25 | GGVFKDEIYIPLQAED [HECTD4_(3003-3018) peptide, Q9Y4D8 E3016A]
17 | -95 | GGVFKDAIYIPLQEED [HECTD4_(3003-3018) peptide, Q9Y4D8 E3009A]
18 | -95 | GGVAKDEIYIPLQEED [HECTD4_(3003-3018) peptide, Q9Y4D8 F3006A]
19 | -95 | GGVFKDEIAIPLQEED [HECTD4_(3003-3018) peptide, Q9Y4D8 Y3011A]
20 | -95 | GAVFKDEIYIPLQEED [HECTD4_(3003-3018) peptide, Q9Y4D8 G3004A]
21 | -70 | GGAFKDEIYIPLQEED [HECTD4_(3003-3018) peptide, Q9Y4D8 V3005A]
22 | -85 | GGVFKDEIYIALQEED [HECTD4_(3003-3018) peptide, Q9Y4D8 P3013A]
23 | 35 | GGVFKDEIYIPLQEEA [HECTD4_(3003-3018) peptide, Q9Y4D8 D3018A]
24 | -5 | AGVFKDEIYIPLQEED [HECTD4_(3003-3018) peptide, Q9Y4D8 G3003A]
25 | -95 | GGVFKAEIYIPLQEED [HECTD4_(3003-3018) peptide, Q9Y4D8 D3008A]
26 | -90 | GGVFKDEIYAPLQEED [HECTD4_(3003-3018) peptide, Q9Y4D8 I3012A]
27 | -15 | GGVFKDEIYIPLAEED [HECTD4_(3003-3018) peptide, Q9Y4D8 Q3015A]
28 | 55 | GGVFKDEIYIPLQEAD [HECTD4_(3003-3018) peptide, Q9Y4D8 E3017A]
29 | -95 | GGVFADEIYIPLQEED [HECTD4_(3003-3018) peptide, Q9Y4D8 K3007A]
30 | 50 | GGVFKDEIYIPAQEED [HECTD4_(3003-3018) peptide, Q9Y4D8 L3014A]

Molecular target: USP22 zf-UBP domain, tag cleaved (for FP) (human) (UniProt Q9UPT9)
Assay: fluorescence polarisation; saturation or displacement not stated for this experiment; 50 mM phosphate buffer pH 7.4, room temperature
Details: not given

USP22 zf-UBP domain, tag cleaved (for FP) (human), sequence (Q9UPT9 whole entry, the tested form may be a part): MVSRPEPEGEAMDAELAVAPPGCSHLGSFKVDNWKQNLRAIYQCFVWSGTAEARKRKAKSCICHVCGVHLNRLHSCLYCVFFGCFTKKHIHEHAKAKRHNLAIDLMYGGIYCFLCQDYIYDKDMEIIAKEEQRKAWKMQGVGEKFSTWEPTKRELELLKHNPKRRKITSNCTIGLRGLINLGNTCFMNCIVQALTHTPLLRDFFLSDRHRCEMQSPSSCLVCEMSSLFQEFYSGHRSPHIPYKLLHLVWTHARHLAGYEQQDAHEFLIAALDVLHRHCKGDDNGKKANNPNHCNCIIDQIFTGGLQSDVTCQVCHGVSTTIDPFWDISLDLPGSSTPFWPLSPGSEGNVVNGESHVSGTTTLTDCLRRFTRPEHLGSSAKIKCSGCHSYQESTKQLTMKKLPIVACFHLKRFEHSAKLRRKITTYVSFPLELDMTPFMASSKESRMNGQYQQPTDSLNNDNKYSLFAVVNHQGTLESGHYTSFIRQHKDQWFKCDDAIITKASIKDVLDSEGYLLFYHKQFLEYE

Row | Kd [µM] | Binder
31 | 11 | VPSPEAFLGKPWSSWID-NH2 (also: N-terminus FITC-labeled or acetylated) [ATXN7L1_(36-52) peptide]
32 | 19 | VPSLDDFAGQSWSSWVE-NH2 (also: N-terminus FITC-labeled or acetylated) [ATXN7L2_(18-34) peptide]
33 | 3 | VPSLDDFAGQSWSSWVERADLP-NH2 (also: N-terminus FITC-labeled or acetylated) [ATXN7L2_(18-39) peptide]
34 | 0.1 | VPSPEAFLGKPWSSWIDAAKLH-NH2 (also: N-terminus FITC-labeled or acetylated) [ATXN7L1_(36-57) peptide]

Molecular target: USP20 zf-UBP domain, tag cleaved (for FP) (human)
Assay: fluorescence polarisation; displacement: unlabeled peptide titrated into the domain (at two-fold the KD of the FITC-labeled peptide) with 10 nM FITC-labeled peptide; 50 mM phosphate buffer pH 7.4, DTT, room temperature; estimated KD
Details: not given

USP20 zf-UBP domain, tag cleaved (for FP) (human), sequence (Q9Y2K6 whole entry, the tested form may be a part): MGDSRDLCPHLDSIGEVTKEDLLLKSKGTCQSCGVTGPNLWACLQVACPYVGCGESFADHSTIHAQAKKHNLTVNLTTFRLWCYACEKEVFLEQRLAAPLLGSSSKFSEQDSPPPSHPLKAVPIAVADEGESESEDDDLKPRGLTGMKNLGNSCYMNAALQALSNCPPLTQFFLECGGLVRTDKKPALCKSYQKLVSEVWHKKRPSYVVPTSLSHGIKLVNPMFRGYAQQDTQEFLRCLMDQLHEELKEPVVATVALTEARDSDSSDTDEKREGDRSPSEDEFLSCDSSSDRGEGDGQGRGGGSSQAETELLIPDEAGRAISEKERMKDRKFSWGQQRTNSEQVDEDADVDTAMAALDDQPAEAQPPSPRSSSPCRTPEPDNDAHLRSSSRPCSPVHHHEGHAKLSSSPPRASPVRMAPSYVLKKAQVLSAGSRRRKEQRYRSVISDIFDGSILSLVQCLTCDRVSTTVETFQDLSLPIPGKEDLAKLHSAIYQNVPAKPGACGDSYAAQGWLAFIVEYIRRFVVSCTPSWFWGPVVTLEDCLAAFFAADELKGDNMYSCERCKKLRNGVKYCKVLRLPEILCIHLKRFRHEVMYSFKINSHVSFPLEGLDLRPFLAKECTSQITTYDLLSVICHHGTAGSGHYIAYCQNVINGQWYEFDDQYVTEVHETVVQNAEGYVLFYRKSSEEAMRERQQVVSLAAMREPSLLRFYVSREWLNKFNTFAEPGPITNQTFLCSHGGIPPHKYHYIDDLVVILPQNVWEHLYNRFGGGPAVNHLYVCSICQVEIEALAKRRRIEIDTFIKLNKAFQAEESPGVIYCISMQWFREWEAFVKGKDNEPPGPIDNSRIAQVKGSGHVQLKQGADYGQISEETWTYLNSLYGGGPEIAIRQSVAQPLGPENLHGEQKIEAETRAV

Row | Kd [µM] | Binder
35 | 82 | Ac-AQSKTQLEVRPV-NH2 [ROBO1_(1495-1506) peptide]

Molecular target: USP33 zf-UBP domain, tag cleaved (for FP) (human) (UniProt Q8TEY7)
Assay: as above
Details: not given

USP33 zf-UBP domain, tag cleaved (for FP) (human), sequence (Q8TEY7 whole entry, the tested form may be a part): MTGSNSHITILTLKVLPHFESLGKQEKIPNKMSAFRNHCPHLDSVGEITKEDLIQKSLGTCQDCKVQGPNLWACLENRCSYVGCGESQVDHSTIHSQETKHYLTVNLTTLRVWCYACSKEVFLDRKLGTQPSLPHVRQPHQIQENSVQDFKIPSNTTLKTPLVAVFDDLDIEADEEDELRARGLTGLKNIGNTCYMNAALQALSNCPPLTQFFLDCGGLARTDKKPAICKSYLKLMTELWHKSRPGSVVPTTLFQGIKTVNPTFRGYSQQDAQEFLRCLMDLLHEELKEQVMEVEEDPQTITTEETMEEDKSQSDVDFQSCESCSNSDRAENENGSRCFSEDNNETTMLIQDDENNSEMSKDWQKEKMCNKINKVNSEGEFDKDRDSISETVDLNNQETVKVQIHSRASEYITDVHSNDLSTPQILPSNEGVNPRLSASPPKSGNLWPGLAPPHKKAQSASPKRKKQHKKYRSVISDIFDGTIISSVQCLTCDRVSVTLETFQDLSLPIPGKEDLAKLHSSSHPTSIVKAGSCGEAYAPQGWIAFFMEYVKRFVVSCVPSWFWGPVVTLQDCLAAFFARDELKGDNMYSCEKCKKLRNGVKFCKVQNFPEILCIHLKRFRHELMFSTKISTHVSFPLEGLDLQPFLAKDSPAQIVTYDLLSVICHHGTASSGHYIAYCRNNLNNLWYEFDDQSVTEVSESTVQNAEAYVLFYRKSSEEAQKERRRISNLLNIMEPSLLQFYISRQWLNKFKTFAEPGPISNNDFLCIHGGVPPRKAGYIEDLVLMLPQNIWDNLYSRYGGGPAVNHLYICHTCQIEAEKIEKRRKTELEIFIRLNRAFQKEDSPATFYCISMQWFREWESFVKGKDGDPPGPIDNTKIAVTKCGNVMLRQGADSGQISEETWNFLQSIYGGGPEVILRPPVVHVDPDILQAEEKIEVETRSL

Row | Kd [µM] | Binder
36 | 14 | Ac-AQSKTQLEVRPV-NH2 [ROBO1_(1495-1506) peptide]

Molecular target: USP20 DUSP2 domain (human) (UniProt Q9Y2K6)
Assay: fluorescence polarisation; displacement: serial dilution of the unlabelled peptide against the domain (at two-fold the KD of the FITC-labelled peptide) in complex with 10 nM FITC-labelled peptide; 50 mM phosphate buffer pH 7.4; room temperature; three technical replicates; sigmoidal dose-response fit
Details: not given

USP20 DUSP2 domain (human), sequence (Q9Y2K6 whole entry, the tested form may be a part): as the sequence (Q9Y2K6 whole entry, the tested form may be a part) above

Row | Kd [µM] | Binder
37 | 18.8 | Ac-PYIPMDKDFQLRSFDQLS-NH2 [HIF1A 564-581 D570K peptide]
38 | 22.4 | Ac-QLEEELFQLRQGPAGY-NH2 [CCDC88B 947-961 peptide]
39 | 10.2 | Ac-SDDDLAWNIAPQGLQ-NH2 [GPR137B 348-362 peptide, unlabelled]
40 | 235 | Ac-PYIPMDGEDFQLSPICPE-NH2 [HIF2A 531-548 peptide]
41 | 44.7 | Ac-DVVDDFQLQHRHGPGY-NH2 [MFSD2B 395-409 peptide]

Molecular target: USP20 zf-UBP domain (human) (UniProt Q9Y2K6)
Assay: as above
Details: not given

USP20 zf-UBP domain (human), sequence (Q9Y2K6 whole entry, the tested form may be a part): as above

Row | Kd [µM] | Binder
42 | 9.02 | Ac-YTNSSGKMALNSPQPG-NH2 [IRAG1 302-316 peptide]
43 | 162 | Ac-YPFQPGRMALESQSPG-NH2 [USP19 874-888 peptide]
44 | 505 | Ac-YEKVKRRLDLDID-NH2 [CCP110 582-593 peptide]
45 | 37.1 | Ac-YLQPSSKASLESTSDL-NH2 [CEP192 2073-2087 peptide]

Molecular target: USP33 DUSP2 domain (human) (UniProt Q8TEY7)
Assay: as above
Details: not given

USP33 DUSP2 domain (human), sequence (Q8TEY7 whole entry, the tested form may be a part): as the sequence (Q8TEY7 whole entry, the tested form may be a part) above

Row | Kd [µM] | Binder
46 | 227 | Ac-PYIPMDDDFQARSFDQLS-NH2 [HIF1A 564-581 L574A peptide]
47 | 9.89 | Ac-PYIPMDKDFQLRSFDQLS-NH2 [HIF1A 564-581 D570K peptide]
48 | 40.1 | Ac-QLEEELFQLRQGPAGY-NH2 [CCDC88B 947-961 peptide]
49 | 228 | Ac-SDDDLAWNIAPQGLQ-NH2 [GPR137B 348-362 peptide, unlabelled]
50 | 1180 | Ac-PYIPMDGEDFQLSPICPE-NH2 [HIF2A 531-548 peptide]
51 | 0.75 | Ac-DVVDDFQLQHRHGPGY-NH2 [MFSD2B 395-409 peptide]

Molecular target: USP33 zf-UBP domain (human) (UniProt Q8TEY7)
Assay: as above
Details: not given

USP33 zf-UBP domain (human), sequence (Q8TEY7 whole entry, the tested form may be a part): as above

Row | Kd [µM] | Binder
52 | 7.86 | Ac-YTNSSGKMALNSPQPG-NH2 [IRAG1 302-316 peptide]
53 | 40.6 | Ac-YPFQPGRMALESQSPG-NH2 [USP19 874-888 peptide]
54 | 260 | Ac-YEKVKRRLDLDID-NH2 [CCP110 582-593 peptide]
55 | 14.1 | Ac-YLQPSSKASLESTSDL-NH2 [CEP192 2073-2087 peptide]
